In patent US20150148405A1 (Johns Hopkins, published 2015):

Target: ribosomal protein S6 (RPS6) (mouse, UniProt P62754 1-249)
Test: co-immunoprecipitation with GW182 antiserum from hippocampal neuron lysates, immunoblot
Description: Proteins and mRNAs associated with P-body component GW182 were isolated through immunoprecipitation of GW182 by modification of previously published protocols (Keene et al., 2006; Moser et al., 2009). Primary cultures of mouse hippocampal neurons (DIV 14-15) were incubated in serum-reduced medium (0.5% B27 supplement) for 2 hours, followed by […] Actinomycin-D for […] and mock or BDNF-stimulation for 30˜60 min. Cell lysates were harvested in polysomal lysis buffer (100 mM KCl, 5 mM MgCl₂, 10 mM HEPES pH 7.0, 0.5% NP-40) with protease inhibitor cocktail and freshly added 20 mM EDTA, 1 mM DTT, 100 U/mL RNase inhibitor (RNaseOut, Invitrogen) and 400 μM Vanadyl ribonucleoside complexes (SIGMA). Lysates were centrifuged and the supernatants pre-cleared by one-hour incubation with recombinant protein G beads pre-washed in NT2 buffer (50 mM Tris-HCl pH 7.4, 150 mM NaCl, 1 mM MgCl₂, 0.05% NP-40). Antibody coating of protein G beads was carried out with antiserum against GW182 (18033, gift of M. Fritzler) or control isotype-specific serum in NT2 buffer plus protease inhibitor for 4 hours after blocking with NT2 buffer plus 5% BSA and 1 mg/mL heparin for 1 hour. For immunoprecipitation (IP), equal amounts of lysate protein (2-5 mg) was incubated with antibody-coated beads and tumbled for 4 hours at 4° C., followed by washing. […]

B1: GW182 (other)
chain: MRELEAKATKDVERNLSRDLVQEEEQLMEEKKKKKDDKKKKEAAQKKATEQKIKVPEQIKPSVSQPQPANSDNGTSTATSTNNNAKRATASNQQPPPPQQQQPQQEQQQQQPQALPRYPREVPPRFRHQEHKQLLKRGQHFPVIAANLGSAVKVLNSQSESSAVTNQQPQNNGEVQNSKSQSDINHNTSGSHYENCQRGPVSSTSDCSTSCKNAVNDLLEKEAWPSAPGSDPELAPECIDADSASNSESERNITVMASGNTGGEKDGLRNSTGLGSQSKFVVGSSSNNVGHGSSTGPWGFPHGALISTCQVSVDAPESKPESSNNRMNAWGTVSSSSNGGLNPSTLNSASNHGAWPVLENNGLALKGPVGSGSSGINIQCSTIGQMPNNQNINSKVSGSSTHGTWGSLQETCEPEVSGTQKVSFSGQPQNITTETTGPNNTTNFMTSSLPNSGSVQNNELPTSNPGAWRVSTMNHPQIQAPSVMNGTSLSHLSNGESKTGGSYGTTWGAYGSNYSGDKCAGPNGQANGDTVNATLMQPGINGPMGTNFQVNTNKGGGVWEPGTVNSQSSPWGSGNGANSGGSRRGWGSPAQNTGTGLSSVEWNKLPSNQHSNDSANGNGKKLTNGWKSTEEDDQGSATSQTNEQNSVWAKAGGTVESDGSAESTGRLEEKVTGESQSRDRRKIDQHTLLQSIVNRTDLDPRVLSNSGWGQTPIKQNTAWDTETSPRGERKTDNGTEAWGSSATQTFNSGACTDKTSPNSNDTSSVSGWGDPKPTLRWGDSKGSNCQGGWEDDSAATGMIKSNQWGGCKEDKSTWNDSQKSKQGWGDGQKSSQGWSISAGDNWGESSRSNHWGEANKKSSSGGSDSDRSISGWNELGKTSSFTWGNNINPNNSSGWDESSKPNSSQGWGDPPKCNQSLGWGDSSKPVSSPDWNKQQDIVGSWGIPPATSKPPGTGWLGGPIPAPAKEEEPTGWEEPSPESIRRKMEIDDGTSAWGDPSKYNYKNVNMWNKNIPEASGRSDQQAQMHRLLPAASAVSSKETSSGSGWGEPWAEPSTPATTVDNGTSAWGKPIDSGPSWGEPITAASNASTWGSSSVGPQSLSKSGPKSMQDGWCGDDMPLPGSRPTGWEEEEDVEIGMWNSNSSQELNSSLNWPPYTKKMSSKGLSGKKRRRERGMMKGGNKQEDAWINPFVKQFSNISFSRDSPEENVQSNKMDLSGGMLQDKRMEIDKHSLNIGDYNRTVGKGPGSRPQISKESSMERNPYFDKNGNPNMFGVGNTAAQPRGMQQPPAQPLSSSQPNLRAQVPPPLLSPQVPVSLLKYAPNNGGLNPLFGPQQVAMLNQLSQLNQLSQISQLQRLLAQQQRAQSQRSAPSANRQQQDQQGRPLSVQQQMMQQSRQLDPSLLVKQQTPPSQQPLHQPAMKSFLDNVMPHTTPELQKGPSPVNAFSNFPIGLNSNLNVNMDMNSIKEPQSRLRKWTTVDSMSVNTSLDQNSSKHGAISSGFRLEESPFVPYDFMNSSTSPASPPGSIGDGWPRAKSPNGSSSVNWPPEFRPGEPWKGYPNIDPETDPYVTPGSVINSLSINTVREVDHLRDRNSGSSSSLNTTLPSTSAWSSIRASNYNVPLSSTAQSTSARNSDSKLTWSPGSVTNTSLAHELWKVPLPPKNITAPSRPPPGLTGQKPPLSTWDNSPLRVGGGWGNSDARYTPGSSWGESSSGRITNWLVLKNLTPQIDGSTLRTLCMQHGPLITFHLNLPHGNALVRYSSKEEVVKAQKSLHMCVLGNTTILAEFASEEEISRFFAQSQSLTPSPGWQSLGSSQSRLGSLDCSHSFSSRTDVNHWNGAGLSGANCGDLHGTSLWGTPHYSTSLWGPPSSDPRGISSPSPINAFLSVDHLGGGGESM
notes: Endogenous protein pulled down from neuronal lysate with GW182 antiserum 18033 (gift of M. Fritzler) on protein G beads; also called TNRC6a; P-body component GW182
Question: Does B1 bind?
Answer: no binding
